Measured values reported in US20240293570A1 (priority 2021, published 2024).
*1 amine or outer side, *2 acyl side, *3 side chain or, on linkers, in order; H or OH if unused. Where a SMILES comes first, the peptide text is derived from it. [ ]: non-standard residue; d: D form. The star is where a group is joined. ξ: configuration not given here. Exatecan = CC[C@@]1(O)C(=O)OCc2c1cc1n(c2=O)Cc2c-1nc1cc(F)c(C)c3c1c2[C@@H](N*)CC3; Dolaproine = CO[C@@H]([C@@H]1CCCN1)[C@@H](C)C(=O)O; X2 = CO[C@@H]([C@H]1CCCN1[*:1])[C@@H](C)C(=O)[*:2]; ξDil = CC[C@H](C)C([C@@H](CC(=O)[*:2])OC)N(C)[*:1]; Hexanoyl(6-maleimido) = O=C1C=CC(=O)N1CCCCCC(=O)*; Propanoyl(3-maleimido) = O=C1C=CC(=O)N1CCC(=O)*; Dil = CC[C@H](C)[C@H](NC)[C@@H](CC(=O)O)OC; PABC = O=C(OCc1ccc(N[*:1])cc1)[*:2]; NHCH2OCH2CO = O=C(COCN[*:1])[*:2]; X3 = C[C@@H](N*)[C@@H](O)c1ccccc1; NMeV = CN[C@H](C(=O)O)C(C)C

Legend:
[1] = format: physicochemical; settings: ADC with Her2 antibody, RP-HPLC-MS
Method: A drug-antibody conjugating ratio (also known as drug-antibody ratio, abbreviated as DAR) of the antibody-drug conjugate was tested using reversed-phase high-performance liquid chromatography-mass chromatography (RP-HPLC-MS). The ADC sample was diluted with 50 mmol/L Tris buffer (pH 8.0) to 1 mg/ml. A fresh dithiothreitol (DTT) stock solution was added to achieve a final DTT concentration of 50 mmol/L. Incubation was performed at 37° C. for 30 minutes. A PLRP-S chromatographic column (1000 Å pores, 2.1×50 mm, 5) μm) was used, and the column temperature was 70° C. The flow rate was 0.25 mL/min. […] of sample was injected; the mobile phase A was an aqueous solution of 0.1% formic acid (V/V) and 0.025% trifluoroacetic acid (V/V), and the mobile phase B was an acetonitrile solution of 0.1% formic acid (V/V) and 0.025% trifluoroacetic acid (V/V); the running time was 0-3 minutes, where 27% of mobile phase B ran for 3 minutes, and the mobile phase B ran from 27% to 49% within 3-25 minutes, from 49% to 95% within 25-26 minutes, at 95% within […], from 95% to 27% within 30-31.5 minutes, and at 27% for 31.5-45 minutes. […] Mass spectrometry drying gas was at a temperature of 350° C. and a flow rate of 7.0 L/min, the pressure of an atomizer was 40 psi, capillary voltage was positive 3000V and negative 3000V, and the mass range was 500-1600 m/z. The molecular weight of each mass spectrometry peak (ranging from 20000 to 70000) was calculated by deconvolution and compared with light and heavy chain molecular weights of un-conjugated antibodies to calculate a drug load at each peak, so as to determine the load of a corresponding ultraviolet peak. Area percentages of heavy and light chain ultraviolet peaks were calculated through integration, and a weighted average DAR of the antibody-drug conjugate was calculated by combining the area percentages with the drug load distribution of each peak.

[2] = Polymer (high molecular component) content of antibody-drug conjugates by SE-HPLC; format: physicochemical; settings: ADC with Her2 antibody
Method: Polymers (high molecular components) of the antibody-drug conjugates were tested using molecular exclusion high-performance liquid chromatography (SE-HPLC). A Biocore SEC chromatographic column (7.8×300 mm, […]) was used, and the mobile phase was 50 mM phosphate containing 300 mM sodium chloride (pH 6.8), with a flow rate of 0.5 mL/min. Samples of […] and 10 μl were injected. […] The polymer content of an antibody-drug conjugate was calculated using an area normalization method.

[3] = Naked antibody content of antibody-drug conjugates by hydrophobic interaction chromatography (HIC); format: physicochemical; settings: ADC with Her2 antibody
Method: The content of naked antibodies in the antibody-drug conjugate was tested using hydrophobic interaction chromatography (HIC). A Biocore HIC-Butyl chromatographic column (4.6×150 mm, 5 μm) was used. The mobile phase A was a 100 mM phosphate aqueous solution containing 2 M ammonium sulfate (pH 7.0), and the mobile phase B was a 100 mM phosphate aqueous solution (pH 7.0): isopropanol=80:20 (V/V). Samples of 50 μg and 10 μl were injected. The mobile phase A at the flow rate of 1 mL/min ran at 100% for 3 minutes. Within 3-25 minutes, the mobile phase B ran from […] to 100%, while the mobile phase B decreased to 0% at 25.1 and ran to 30 minutes. […] The naked antibody content of the antibody-drug conjugate was calculated using an area normalization method based on the retention time of a naked antibody peak located by the antibody of the antibody-drug conjugate.

Structure (SMILES) | DAR [1] | Polymer content (%) [2] | Naked antibody content (%) [3]
CC[C@H](C)[C@@H]([C@@H](CC(=O)N1CCC[C@H]1[C@H](OC)[C@@H](C)C(=O)N[C@H](C)[C@@H](O)c1ccccc1)OC)N(C)C(=O)[C@@H](NC(=O)[C@H](C(C)C)N(C)C(=O)OCc1ccc(NC(=O)CNC(=O)[C@H](Cc2ccccc2)NC(=O)CNC(=O)CNC(=O)CCCCCN2C(=O)C=CC2=O)cc1)C(C)C [Comparative Example 1, reference compound] ({Hexanoyl(6-maleimido)}-GGFG[PABC][NMeV]V[Dil][Dolaproine]-X3) | 1.03 | 38.31% | 23.50%
C=C1C[C@@H]2CC[C@@]34C[C@H]5OC6C(O[C@H]7CC[C@H](CC(=O)C[C@@H]8[C@@H](OC)[C@@H](C[C@H](O)CNC(=O)CNC(=O)[C@H](Cc9ccccc9)NC(=O)CNC(=O)CNC(=O)CCOCCOCCN(CCOCCOCCC(=O)NCC(=O)NCC(=O)N[C@@H](Cc9ccccc9)C(=O)NCC(=O)NCOCC(=O)N[C@H]9CCc%10c(C)c(F)cc%11nc%12c(c9c%10%11)Cn9c-%12cc%10c(c9=O)COC(=O)[C@]%10(O)CC)C(=O)CCCCCN9C(=O)C=CC9=O)O[C@H]8C[C@H]8O[C@@H](CC[C@@H]1O2)C[C@@H](C)C8=C)O[C@@H]7[C@@H]6O3)[C@H]5O4 [Comparative Example 3, reference compound] | 0.81 | 50.73% | 60.77%
CCc1c2c(nc3ccc(O)cc13)-c1cc3c(c(=O)n1C2)COC(=O)[C@@]3(CC)OC(=O)N(C)CCN(C)C(=O)COCNC(=O)CNC(=O)[C@H](Cc1ccccc1)NC(=O)CNC(=O)CNC(=O)CCN1C(=O)C=CC1=O [Comparative Example 6, reference compound] | 2.76 | 13.74% | 9.06%
C=C1C[C@@H]2CC[C@@]34C[C@H]5OC6C(O[C@H]7CC[C@H](CC(=O)C[C@@H]8[C@@H](OC)[C@@H](CC(O)CNC(=O)CNC(=O)[C@H](Cc9ccccc9)NC(=O)CNC(=O)CNC(=O)CCOCCOCCC(CCOCCOCCC(=O)NCC(=O)NCC(=O)N[C@@H](Cc9ccccc9)C(=O)NCC(=O)NCOCC(=O)N[C@H]9CCc%10c(C)c(F)cc%11nc%12c(c9c%10%11)Cn9c-%12cc%10c(c9=O)COC(=O)[C@]%10(O)CC)C9CCC(NC(=O)CCOCCOCCOCCOCCN%10C(=O)C=CC%10=O)CC9)O[C@H]8C[C@H]8O[C@@H](CC[C@@H]1O2)C[C@@H](C)C8=C)O[C@@H]7[C@@H]6O3)[C@H]5O4 (stereo partly shown) [Comparative Example 7, reference compound] | 0.86 | 60.31% | 53.82%
CC[C@H](C)C([C@@H](CC(=O)N1CCC[C@@H]1[C@H](OC)[C@@H](C)C(=O)N[C@H](C)[C@@H](O)c1ccccc1)OC)N(C)C(=O)[C@@H](NC(=O)[C@H](C(C)C)N(C)C(=O)OCc1ccc(NC(=O)CNC(=O)[C@H](Cc2ccccc2)NC(=O)CNC(=O)CNC(=O)CCN2C(=O)C=CC2=O)cc1)C(C)C (stereo partly shown) [Comparative Example 8, reference compound] ({Propanoyl(3-maleimido)}-GGFG[PABC][NMeV]V[ξDil][X2]-X3) | 2.57 | 12.37% | 10.15%
CC[C@@]1(O)C(=O)OCc2c1cc1n(c2=O)Cc2c-1nc1cc(F)c(C)c3c1c2[C@@H](NC(=O)COCNC(=O)CNC(=O)[C@H](Cc1ccccc1)NC(=O)CNC(=O)CNC(=O)CCCCCN1C(=O)C=CC1=O)CC3 [Comparative Example 14, reference compound] ({Hexanoyl(6-maleimido)}-GGFG[NHCH2OCH2CO]-Exatecan) | 8.00 |  | 
